Data: patent publication US20100190693

Assays:
[1] = biological target: GST-TORC2 (aa 161-181) Ser171Ala (UniProt Q53ET0)
[2] = biological target: T1, GST-TORC2 (aa 161-181), wild-type (UniProt Q53ET0)
T1 sequence: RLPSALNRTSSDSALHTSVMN

Chain of GST-TORC2 (aa 161-181) Ser171Ala (Q53ET0 whole entry S171A, looked up, the tested form may be a part): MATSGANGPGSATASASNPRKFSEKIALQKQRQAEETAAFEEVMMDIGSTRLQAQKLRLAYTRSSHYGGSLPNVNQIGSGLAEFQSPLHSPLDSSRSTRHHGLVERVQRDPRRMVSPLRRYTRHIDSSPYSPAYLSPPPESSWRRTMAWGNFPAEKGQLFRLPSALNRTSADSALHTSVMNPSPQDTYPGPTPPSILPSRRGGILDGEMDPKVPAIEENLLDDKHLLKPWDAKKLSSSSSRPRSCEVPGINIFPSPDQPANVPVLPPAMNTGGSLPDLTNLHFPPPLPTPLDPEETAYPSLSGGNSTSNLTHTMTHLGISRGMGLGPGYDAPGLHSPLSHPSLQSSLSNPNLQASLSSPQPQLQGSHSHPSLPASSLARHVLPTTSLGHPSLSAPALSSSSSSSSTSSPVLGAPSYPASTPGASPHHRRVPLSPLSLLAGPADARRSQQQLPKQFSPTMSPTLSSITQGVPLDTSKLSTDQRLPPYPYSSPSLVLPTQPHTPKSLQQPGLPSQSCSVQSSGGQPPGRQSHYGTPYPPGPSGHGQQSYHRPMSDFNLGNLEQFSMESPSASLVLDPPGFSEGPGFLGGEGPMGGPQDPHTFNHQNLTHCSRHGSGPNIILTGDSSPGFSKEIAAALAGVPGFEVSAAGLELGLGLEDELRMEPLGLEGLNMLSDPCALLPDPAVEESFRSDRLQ

“purified AMPK (AMP-activated protein kinase) (Upstate Biotech)” was tested, and the “in vitro kinase assay, 32P incorporation” value [1] was “Activated AMPK phosphorylated wild-type, but not Ser171Ala mutant GST-TORC2 (161-181) peptide in vitro” and the “in vitro kinase assay, 32P incorporation” value [2] was “Activated AMPK phosphorylated wild-type, but not Ser171Ala mutant GST-TORC2 (161-181) peptide in vitro”.
